Measured values published in PMC5750225, “Inhibition of Poly(A)-binding protein with a synthetic RNA mimic reduces pain sensitization in mice”.

B1: Poly(A) SPOT-ON (XNA)
strand: AAAAAAAAAAAA
modifications: 2'-O-methyl throughout; phosphorothioate at the 5' and 3' terminal linkages (A*AAAAAAAAAA*A)

Target: PABP (PABPC1) (Homo sapiens, UniProt P11940 1-383)
Assay: fluorescence polarization/anisotropy; text gives nM; Fig. 2d legend prints μM; FP: 50 mM HEPES, 5 mM EDTA, 250 mM KCl, 10 mM DTT, 0.5 mg/mL BSA, 0.05% Tween-20, 0.1 mg/mL yeast RNA, 0.5 nM Cy3-RNA (pH and temperature not stated). EMSA: 10
Settings: protein: recombinant

Chain of PABP (PABPC1) (P11940 1-383): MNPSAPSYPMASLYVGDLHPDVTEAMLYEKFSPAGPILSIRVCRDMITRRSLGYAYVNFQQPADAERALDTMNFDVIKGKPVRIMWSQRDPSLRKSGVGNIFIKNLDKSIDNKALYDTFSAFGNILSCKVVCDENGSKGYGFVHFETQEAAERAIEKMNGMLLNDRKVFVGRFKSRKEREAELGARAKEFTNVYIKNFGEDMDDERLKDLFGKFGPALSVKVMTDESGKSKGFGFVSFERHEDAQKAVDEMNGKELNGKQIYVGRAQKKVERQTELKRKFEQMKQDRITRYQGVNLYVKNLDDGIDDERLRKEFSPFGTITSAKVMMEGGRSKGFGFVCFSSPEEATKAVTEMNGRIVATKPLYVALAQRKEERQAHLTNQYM

Row | Binder | Kd [nM]
1 | B1 | 301 ± 41
2 | AAAAAAAAAAAA (ssRNA) [unmodified 12-base Poly(A) RNA] | 261 ± 54
